Measurements taken from patent publication US20090246142.

Tests used:
[1] = biological target: T1, MMP-2 substrate G-K(TAMRA)-G-P-L-G-V-R-G-C-CONH2 with 20 kDa PEG, on ligand (biotin) TSACs (Example 3) (not fully specified)
T1 chain: GKGPLGVRGC

[2] = biological target: T2, MMP-7 substrate G-K(TAMRA)-G-V-P-L-S-L-T-M-G-C-CONH2 with 20 kDa PEG, on receptor (NeutrAvidin) TSACs (Example 3) (not fully specified)
T2 chain: GKGVPLSLTMGC

[3] = biological target: T3, MMP-7-MMP-2 tandem substrate TAMRA-G-K-G-V-P-L-S-L-T-M-Ahx-G-P-L-G-V-R-G-C-CONH2 with 20 kDa PEG, on ligand (biotin) TSACs (Example 3) (not fully specified)
T3 chain: GKGVPLSLTMGPLGVRGC

B1: catalytic domain of matrix metalloproteinase-7 (MMP-7; Biomol) (protein)
chain: YSLFPNSPKWTSKVVTYRIVSYTRDLPHITVDRLVSKALNMWGKEIPLHFRKVVWGTADIMIGFARGAHGDSYPFDGPGNTLAHAFAPGTGLGGDAHFDEDERWTDGSSLGINFLYAATHELGHSLGMGHSSDPNAVMYPTYGNGDPQNFKLSQDDIKGIQKLYGKRSNSRKK
TSAC assembly in DLS [1]: Addition of 0.4 µg MMP-2 actuates TSAC assembly, while 0.4 µg MMP-7 or no enzyme is insufficient | TSAC assembly in DLS [2]: addition of 0.4 µg MMP-7 induces assembly, while 0.4 µg MMP-2 cannot | hydrodynamic radius increase in DLS [3]: Hydrodynamic radii increased more than 5-fold in the presence of either enzyme or both enzymes
